Source: PMC3499583
“And” between values parts separate entries of the source, which are not always exact repeats. Equal values may be shown once.

What was measured:
[1] = target: purified monomeric Semaphorin-7A ectodomain (Cd4d3+4-His6) (human); test: SEC + other: amino acid analysis; peak fraction of the SEC of the equimolar mixture; amino acid composition compared with theoretical 1:1, 2:1 and 1:2 (Semaphorin-7A:MTRAP)
[2] = target: purified monomeric Semaphorin-7A ectodomain (Cd4d3+4-His6) (human); test: SEC-MALS; Superdex200 10/30 in 50 mM Tris.HCl pH 7.5, 150 mM NaCl, 0.4 ml/min; Dawn Heleos-II and Optilab-Rex
[3] = target: purified monomeric Semaphorin-7A ectodomain (Cd4d3+4-His6) (human); test: SEC; Superdex 200 Tricorn 10/600 in HBS-EP; nickel-purified His-tagged proteins alone and mixed at equimolar concentrations; fractions on SDS-PAGE, Coomassie
[4] = target: MTRAP TSR1+2 fragment, biotinylated bait (P. falciparum); test: SPR; Biacore T100; biotinylated MTRAP or TSR baits captured on a streptavidin chip, serial dilutions of purified Semaphorin-7A injected (20 µl/min for equilibrium); reference biotinylated rat Cd4d3+4; 37°C, HBS-EP
[5] = target: MTRAP entire ectodomain, biotinylated bait (P. falciparum); test: as above
[6] = target: Human Semaphorin-7A ectodomain, natural variant E473V, biotinylated bait (human); test: SPR; kinetic (dissociation model fitted to a family of binding curves); biotinylated Semaphorin-7A or its variants captured on a streptavidin-coated chip, serial dilutions of purified MTRAP injected at 100 µl/min; Biacore T100, 37°C, HBS-EP
[7] = target: Human Semaphorin-7A ectodomain, natural variant Q457K, biotinylated bait (human); test: as above
[8] = target: Human Semaphorin-7A ectodomain, natural variant Q530P, biotinylated bait (human); test: as above
[9] = target: Human Semaphorin-7A ectodomain, natural variant R207Q, biotinylated bait (human); test: as above
[10] = target: Human Semaphorin-7A ectodomain, natural variant R460H, biotinylated bait (human); test: as above
[11] = target: Human Semaphorin-7A ectodomain, natural variant R474L, biotinylated bait (human); test: as above
[12] = target: Human Semaphorin-7A ectodomain, natural variant R475T, biotinylated bait (human); test: as above
[13] = target: Human Semaphorin-7A ectodomain, natural variant S115T, biotinylated bait (human); test: as above
[14] = target: Human Semaphorin-7A entire ectodomain, biotinylated bait (Cd4d3+4-biotin) (human); test: as above
[15] = target: P. falciparum MTRAP TSR1+2 fragment, biotinylated bait (Cd4d3+4-biotin) (P. falciparum); test: SPR; equilibrium (steady state affinity model); biotinylated MTRAP or TSR1+2 captured on a streptavidin-coated chip, serial dilutions of purified Semaphorin-7A injected at 20 µl/min; Biacore T100, 37°C, HBS-EP; reference flow cell with biotinylated rat Cd4d3+4
[16] = target: P. falciparum MTRAP entire ectodomain, biotinylated bait (Cd4d3+4-biotin) (P. falciparum); test: as above
[17] = target: PNGase F-treated Semaphorin-7A, biotinylated bait (human); test: SPR; Biacore T100; biotinylated Semaphorin-7A ectodomain, PNGase F-treated form, single domains or variants captured on a streptavidin chip, purified monomeric MTRAP injected; reference biotinylated rat Cd4d3+4; 37°C, HBS-EP
[18] = target: Semaphorin-7A Sema domain, biotinylated bait (human) (UniProt O75326); test: as above
Sequence of UniProt O75326 (O75326 53-490): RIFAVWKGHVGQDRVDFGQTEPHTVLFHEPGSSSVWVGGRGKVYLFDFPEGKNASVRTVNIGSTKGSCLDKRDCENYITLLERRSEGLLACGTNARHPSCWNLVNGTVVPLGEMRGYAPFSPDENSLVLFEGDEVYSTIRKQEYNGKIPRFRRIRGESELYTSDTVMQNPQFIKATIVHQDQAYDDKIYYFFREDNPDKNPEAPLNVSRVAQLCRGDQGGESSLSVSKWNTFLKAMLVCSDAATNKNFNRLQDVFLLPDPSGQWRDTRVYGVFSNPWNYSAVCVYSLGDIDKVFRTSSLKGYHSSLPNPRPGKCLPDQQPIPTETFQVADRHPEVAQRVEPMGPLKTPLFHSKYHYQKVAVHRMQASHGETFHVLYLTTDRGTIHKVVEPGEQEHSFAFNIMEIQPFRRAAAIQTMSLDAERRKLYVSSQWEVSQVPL

[19] = target: Semaphorin-7A entire ectodomain, biotinylated bait (human); test: as above

## monomeric His-tagged MTRAP ectodomain lacking the Cd4d3+4-tag (domain or fragment)
[1]
  stoichiometry N: 1

## purified monomeric Semaphorin-7A ectodomain (Cd4d3+4-His6) (domain or fragment)
[2]
  stoichiometry N: 2
[3]
  stoichiometry N: 2
[4]
  Kd: 1960 nM
[5]
  Kd: 1180 nM

## P. falciparum MTRAP entire ectodomain, monomeric His-tagged, purified (domain or fragment)
[6]
  koff: 0.056 s⁻¹ and 0.054 s⁻¹ and 0.055 s⁻¹
[7]
  koff: 0.053 s⁻¹ and 0.058 s⁻¹ and 0.056 s⁻¹
[8]
  koff: 0.05 s⁻¹ and 0.055 s⁻¹ and 0.053 s⁻¹
[9]
  koff: 0.054 s⁻¹ and 0.045 s⁻¹ and 0.05 s⁻¹
[10]
  koff: 0.049 s⁻¹ and 0.051 s⁻¹ and 0.05 s⁻¹
[11]
  koff: 0.046 s⁻¹ and 0.057 s⁻¹ and 0.052 s⁻¹
[12]
  koff: 0.059 s⁻¹ and 0.053 s⁻¹ and 0.056 s⁻¹
[13]
  koff: 0.053 s⁻¹ and 0.047 s⁻¹ and 0.05 s⁻¹
[14]
  koff: 0.058 s⁻¹ and 0.054 s⁻¹ and 0.056 s⁻¹

## Human Semaphorin-7A entire ectodomain, soluble monomeric His-tagged (Cd4d3+4-His6), purified (domain or fragment)
[15]
  Kd: 1940 nM and 1930 nM and 2000 nM
[16]
  Kd: 1070 nM and 850 nM and 1620 nM

## purified monomeric MTRAP (His-tagged ectodomain, analyte in SPR) (domain or fragment)
[17]
  koff: 0.063 s⁻¹
[18]
  Kd: 830 nM
[19]
  koff: 0.061 s⁻¹
